According to patent US20240101642A1 (DUKE UNIVERSITY, published 2024):

Columns and labels:
[1] = biological target: T1, wild-type (WT) β2AR reconstituted in high-density lipoprotein particles (HDL-β2AR), non-phosphorylated (human, UniProt P07550 1-413); experiment: cell-based or functional assay
[2] = biological target: β2AR ligated to a non-phosphorylated version of the V2R peptide, in HDL particles (β2ARnp) (human, UniProt P07550 1-365); experiment: cell-based or functional assay
[3] = biological target: T1, wild-type (WT) β2AR reconstituted in …; experiment: in situ read-outs: [125I]-CYP/isoproterenol competition binding with HDL-β2AR and bimane fluorescence
Method: Bimane-labeled β2AR or β2ARpp HDLs were incubated with or without isoproterenol for 15 min at room temperature before the addition of excess transducer. […] The reactions were equilibrated for at least 30 min in black, solid-bottom 96-well microplates before fluorescence emission spectra were collected on a CLARIOstar plate reader (BMG LABTECH) in top-read mode, with excitation at 370 nm (16 nm bandpass) and emission scanning from 400 nm to 600 nm (10 nm bandpass) in 1 nm increments. Reactions were set up in duplicate in each experiment, and wells for background subtraction contained all components except the bimane-labeled HDLs. Experiments were repeated at least three times.
Radioligand Binding: All equilibrium competition radioligand binding studies were conducted in a final volume of 200 μL containing HDL-receptor, radioligand, a titration of unlabeled competitor, and the presence or absence of the indicated transducer protein. All components were diluted in assay buffer containing 20 mM HEPES, pH 7.4, 100 mM NaCl, and 1 mg/mL bovine serum albumin (BSA). […] Binding reactions proceeded at room temperature and were harvested onto glass-fiber filters (GFB) with 0.3% polyethyleneimine (PEI) using a 96-well Brandel harvester. Binding data were analyzed in GraphPad Prism using a sigmoidal dose-response curve fit, and differences in log IC50 values were analyzed by one-way ANOVA.

log IC50 of isoproterenol (ISO), [125I]-CYP competition binding, in the presence of βarr1 (no transducer: -6.82+/-0.03) [1]: -6.81 log
log IC50 of isoproterenol (ISO), [125I]-CYP competition binding, in the presence of βarr1 (no transducer: -6.42+/-0.09) [2]: -6.49 log
B1: β-arrestin1, minimal cysteine and truncated variant of rat βarr1 (βarr1-MC-393) (other, UniProt P29066 1-393, looked up)
chain: MGDKGTRVFKKASPNGKLTVYLGKRDFVDHIDLVDPVDGVVLVDPEYLKERRVYVTLTAAFRYGREDLDVLGLTFRKDLFVANVQSFPPAPEDKKPLTRLQERLIKKLGEHAYPFTFEIPPNLPSSVTLQPGPEDTGKAIGVDYEVKAFVAENLEEKIHKRNSVRLVIRKVQYAPERPGPQPTAETTRQFLMSDKPLHLEASLDKEIYYHGEPISVNVHVTNNTNKTVKKIKISVRQYADIVLFNTAQYKVPVAMEEADDTVAPSSTFSKVYTLTPFLANNREKRGLALDGKLKHEDTNLASSTLLREGANREILGIIVSYKVKVKLVVSRGGLLGDLASSDVAVELPFTLMHPKPKEEPPHREVPESETPVDTNLIELDTNDDDIVFEDFAR
notes: range 1-393; Expressed as GST fusion in BL21(DE3) and removed from GST by thrombin; also called βarr1-393 minimal cysteine
binding result [3]: no binding (tested: micromolar concentrations)
